# According to patent US11541126B1, “Anti-ASGR1 antibody TLR8 agonist comprising conjugates and uses thereof” (Silverback Therapeutics, Inc., priority 2020, dated 2023):
# T1: HepG2 cells (which express ASGR1) (Homo sapiens, UniProt P07306)
# T1 construct: endogenous in cells; host or cells: HepG2
# T1 sequence (P07306 1-291): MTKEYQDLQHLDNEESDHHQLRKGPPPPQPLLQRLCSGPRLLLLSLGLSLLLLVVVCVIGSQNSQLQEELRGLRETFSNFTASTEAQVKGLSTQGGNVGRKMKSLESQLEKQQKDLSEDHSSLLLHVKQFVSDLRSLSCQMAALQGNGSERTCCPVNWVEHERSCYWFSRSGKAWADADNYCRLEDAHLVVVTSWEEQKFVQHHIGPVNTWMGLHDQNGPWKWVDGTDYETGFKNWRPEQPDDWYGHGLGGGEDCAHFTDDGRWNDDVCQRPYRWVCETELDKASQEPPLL
# Molecular target: T1, HepG2 cells (which express ASGR1)
# Assay: Guava HepG2 cell binding screen of humanized anti-ASGR1 clones
# Set-up: unit not given here
# Details: humanized G2D clones (Table 5); two numbers per cell, not explained
# Protocol: Hybridomas producing monoclonal antibodies (mAbs) specific for human ASGR1 were prepared from Balb/C mice immunized with ASGR1-AviHis at a service provider using their propriety protocol. Antibody heavy and light chain sequences were obtained, amplified, and cloned. Clone supernatants containing the expressed mAbs were screened for binding to a human ASGR1-IgG1Fc fusion protein, and those with a positive signal as measured by enzyme linked immunosorbent assay (ELISA) were screened for cell binding on HepG2 cells (which express ASGR1).
row,Guava HepG2 Screen,Molecule
1,158/113,"hzG2D-12: humanized G2D clone; ""G2D VL region ... of clones 1-16, 19-21, 26-29, 31, and 33 ... grafted into the human germline sequence VKI-L1 with JK4"" (antibody, V domains shown, Synthetic sequence hzG2.3D VH T28S, R66K, V67A, A93T, R94S, V109L; Synthetic sequence hzG2D VLa) VH: QVQLVQSGAEVKKPGASVKVSCKASGYSFTGYYMHWVRQAPGQRLEWMGRINPNNGATNYNQNFKDKATITRDTSASTAYMELSSLRSEDTAVYYCTSVNFYYWGQGTTLTVSS VL: DIQMTQSPSSLSASVGDRVTITCKASQVINSYLSWFQQKPGKAPKSLIYRANTLVDGVPSRFSGSGSGTDFTLTISSLQPEDFATYYCLQYAEFPYTFGGGTKVEIK"
2,172/119,"hzG2D-15: humanized G2D clone; ""G2D VL region ... of clones 1-16, 19-21, 26-29, 31, and 33 ... grafted into the human germline sequence VKI-L1 with JK4"" (antibody, V domains shown, Synthetic sequence hzG2.42D VH R66K, V67A, T68S, I69L, R71V, A93T, R94S, V109L; Synthetic sequence hzG2D VLa) VH: QVQLVQSGAEVKKPGASVKVSCKASGYTFTGYYMHWVRQAPGQRLEWMGRINPNNGATNYNQNFKDKASLTVDTSASTAYMELSSLRSEDTAVYYCTSVNFYYWGQGTTLTVSS VL: DIQMTQSPSSLSASVGDRVTITCKASQVINSYLSWFQQKPGKAPKSLIYRANTLVDGVPSRFSGSGSGTDFTLTISSLQPEDFATYYCLQYAEFPYTFGGGTKVEIK"
3,140/83,"hzG2D-13: humanized G2D clone; ""G2D VL region ... of clones 1-16, 19-21, 26-29, 31, and 33 ... grafted into the human germline sequence VKI-L1 with JK4"" (antibody, V domains shown, Synthetic sequence hzG2.7D VH T28S, T68S, I69L, R71V, A93T, R94S, V109L; Synthetic sequence hzG2D VLa) VH: QVQLVQSGAEVKKPGASVKVSCKASGYSFTGYYMHWVRQAPGQRLEWMGRINPNNGATNYNQNFKDRVSLTVDTSASTAYMELSSLRSEDTAVYYCTSVNFYYWGQGTTLTVSS VL: DIQMTQSPSSLSASVGDRVTITCKASQVINSYLSWFQQKPGKAPKSLIYRANTLVDGVPSRFSGSGSGTDFTLTISSLQPEDFATYYCLQYAEFPYTFGGGTKVEIK"
4,None,"hzG2D-25: humanized G2D clone; ""G2D VL region ... of clones 24 and 25 ... grafted into the human germline sequence VKI-A20 with JK4 to generate hzG2D VLc (SEQ ID NO:249)"" (antibody, V domains shown, Synthetic sequence hzG2.47D VH R66K, V67A, T68S, I69L, R71V, A93T, R94S; Synthetic sequence hzG2D VLc) VH: QVQLVQSGAEVKKPGASVKVSCKASGYTFTGYYMHWVRQAPGQRLEWMGRINPNNGATNYNQNFKDKASLTVDTSASTAYMELSSLRSEDTAVYYCTSVNFYYWGQGTTVTVSS VL: DIQMTQSPSSLSASVGDRVTITCKASQVINSYLSWYQQKPGKVPKLLIYRANTLVDGVPSRFSGSGSGTDFTLTISSLQPEDVATYYCLQYAEFPYTFGGGTKVEIK"
5,None,"hzG2D-24: humanized G2D clone; ""G2D VL region ... of clones 24 and 25 ... grafted into the human germline sequence VKI-A20 with JK4 to generate hzG2D VLc (SEQ ID NO:249)"" (antibody, V domains shown, Synthetic sequence hzG2.46D VH R66K, V67A, T68S, I69L, R71V; Synthetic sequence hzG2D VLc) VH: QVQLVQSGAEVKKPGASVKVSCKASGYTFTGYYMHWVRQAPGQRLEWMGRINPNNGATNYNQNFKDKASLTVDTSASTAYMELSSLRSEDTAVYYCARVNFYYWGQGTTVTVSS VL: DIQMTQSPSSLSASVGDRVTITCKASQVINSYLSWYQQKPGKVPKLLIYRANTLVDGVPSRFSGSGSGTDFTLTISSLQPEDVATYYCLQYAEFPYTFGGGTKVEIK"
6,37/16,"hzG2D-14: humanized G2D clone; ""G2D VL region ... of clones 1-16, 19-21, 26-29, 31, and 33 ... grafted into the human germline sequence VKI-L1 with JK4"" (antibody, V domains shown, Synthetic sequence hzG2.4D VH T28S, R66K, V67A, T68S, I69L, R71V, V109L; Synthetic sequence hzG2D VLa) VH: QVQLVQSGAEVKKPGASVKVSCKASGYSFTGYYMHWVRQAPGQRLEWMGRINPNNGATNYNQNFKDKASLTVDTSASTAYMELSSLRSEDTAVYYCARVNFYYWGQGTTLTVSS VL: DIQMTQSPSSLSASVGDRVTITCKASQVINSYLSWFQQKPGKAPKSLIYRANTLVDGVPSRFSGSGSGTDFTLTISSLQPEDFATYYCLQYAEFPYTFGGGTKVEIK"
7,185/114,"hzG2D-26: humanized G2D clone; ""G2D VL region ... of clones 1-16, 19-21, 26-29, 31, and 33 ... grafted into the human germline sequence VKI-L1 with JK4"" (antibody, V domains shown, Synthetic sequence hzG2.47D VH R66K, V67A, T68S, I69L, R71V, A93T, R94S; Synthetic sequence hzG2.3D VLa K45E, S46T) VH: QVQLVQSGAEVKKPGASVKVSCKASGYTFTGYYMHWVRQAPGQRLEWMGRINPNNGATNYNQNFKDKASLTVDTSASTAYMELSSLRSEDTAVYYCTSVNFYYWGQGTTVTVSS VL: DIQMTQSPSSLSASVGDRVTITCKASQVINSYLSWFQQKPGKAPETLIYRANTLVDGVPSRFSGSGSGTDFTLTISSLQPEDFATYYCLQYAEFPYTFGGGTKVEIK"
8,165/108,"hzG2D-16: humanized G2D clone; ""G2D VL region ... of clones 1-16, 19-21, 26-29, 31, and 33 ... grafted into the human germline sequence VKI-L1 with JK4"" (antibody, V domains shown, Synthetic sequence hzG2.5D VH T28S, R66K, V67A, T68S, I69L, R71V, A93T, R94S, V109L; Synthetic sequence hzG2D VLa) VH: QVQLVQSGAEVKKPGASVKVSCKASGYSFTGYYMHWVRQAPGQRLEWMGRINPNNGATNYNQNFKDKASLTVDTSASTAYMELSSLRSEDTAVYYCTSVNFYYWGQGTTLTVSS VL: DIQMTQSPSSLSASVGDRVTITCKASQVINSYLSWFQQKPGKAPKSLIYRANTLVDGVPSRFSGSGSGTDFTLTISSLQPEDFATYYCLQYAEFPYTFGGGTKVEIK"
9,198/131,"hzG2D-23: humanized G2D clone; ""G2D VL region ... of clones 22, 23, 30, 32, and 34-37 ... grafted into the human germline sequence VKI-O2 with JK4"" (antibody, V domains shown, Synthetic sequence hzG2.47D VH R66K, V67A, T68S, I69L, R71V, A93T, R94S; Synthetic sequence hzG2D VLb) VH: QVQLVQSGAEVKKPGASVKVSCKASGYTFTGYYMHWVRQAPGQRLEWMGRINPNNGATNYNQNFKDKASLTVDTSASTAYMELSSLRSEDTAVYYCTSVNFYYWGQGTTVTVSS VL: DIQMTQSPSSLSASVGDRVTITCKASQVINSYLSWYQQKPGKAPKLLIYRANTLVDGVPSRFSGSGSGTDFTLTISSLQPEDFATYYCLQYAEFPYTFGGGTKVEIK"
10,None,"hzG2D-22: humanized G2D clone; ""G2D VL region ... of clones 22, 23, 30, 32, and 34-37 ... grafted into the human germline sequence VKI-O2 with JK4"" (antibody, V domains shown, Synthetic sequence hzG2.46D VH R66K, V67A, T68S, I69L, R71V; Synthetic sequence hzG2D VLb) VH: QVQLVQSGAEVKKPGASVKVSCKASGYTFTGYYMHWVRQAPGQRLEWMGRINPNNGATNYNQNFKDKASLTVDTSASTAYMELSSLRSEDTAVYYCARVNFYYWGQGTTVTVSS VL: DIQMTQSPSSLSASVGDRVTITCKASQVINSYLSWYQQKPGKAPKLLIYRANTLVDGVPSRFSGSGSGTDFTLTISSLQPEDFATYYCLQYAEFPYTFGGGTKVEIK"
11,199/127,"hzG2D-21: humanized G2D clone; ""G2D VL region ... of clones 1-16, 19-21, 26-29, 31, and 33 ... grafted into the human germline sequence VKI-L1 with JK4"" (antibody, V domains shown, Synthetic sequence hzG2.47D VH R66K, V67A, T68S, I69L, R71V, A93T, R94S; Synthetic sequence hzG2D VLa) VH: QVQLVQSGAEVKKPGASVKVSCKASGYTFTGYYMHWVRQAPGQRLEWMGRINPNNGATNYNQNFKDKASLTVDTSASTAYMELSSLRSEDTAVYYCTSVNFYYWGQGTTVTVSS VL: DIQMTQSPSSLSASVGDRVTITCKASQVINSYLSWFQQKPGKAPKSLIYRANTLVDGVPSRFSGSGSGTDFTLTISSLQPEDFATYYCLQYAEFPYTFGGGTKVEIK"
